# Measured values as given in PMC11650997 (Journal of Virology, 2024).
# B1: pT1616 (human monoclonal antibody, IgG1) (antibody, V domains shown)
# VH: QVQLVQSGAEVKKPGSSVKVSCKASGGTFSSYTISWVRQAPGQGLECMGRIIPILGIANYAQKFQGRVTITADKSTSIAYMEVSSLRSEDTAVYYCATEVGYSGYGSAEYFNHWGQGTPVTVSS
# VL: QSVLTQPPSVSGAPGQRVTISCTGSNSNIGAGYDVHWYQQLPGTAPKLLIYANNNRPSGVPDRFSGSRSGTSASLVITGLQADDEADYYCQSYDSSLTGSLFGGGTKLTVL
# notes: also called bnAb pT1616; nAb pT1616; source: HEK293ExPi, transfected, purified from the supernatant (Protein G, SEC)
# B2: pT1616 IgG1 (antibody, V domains shown)
# VH: QVQLVQSGAEVKKPGSSVKVSCKASGGTFSSYTISWVRQAPGQGLECMGRIIPILGIANYAQKFQGRVTITADKSTSIAYMEVSSLRSEDTAVYYCATEVGYSGYGSAEYFNHWGQGTPVTVSS
# VL: QSVLTQPPSVSGAPGQRVTISCTGSNSNIGAGYDVHWYQQLPGTAPKLLIYANNNRPSGVPDRFSGSRSGTSASLVITGLQADDEADYYCQSYDSSLTGSLFGGGTKLTVL
# notes: also called bnAb pT1616; nAb pT1616; source: HEK293ExPi, transfected, purified from supernatant (Protein G, SEC)
# How the values were obtained:
# Settings in all cases: both partners purified
# [1] = target: T1, SARS-CoV-2 RBD (aa 334-527) (Severe acute respiratory syndrome …, UniProt P0DTC2); assay: SPR
# T1 construct: also called recombinant RBD; monomeric RBD
# [2] = target: WIV-1 S protein ectodomain (Bat SARS-like coronavirus WIV1 …, UniProt U5WI05); assay: ELISA; […], room temperature; […]
# [3] = target: CoVZC45 S protein ectodomain (Bat SARS-like coronavirus CoVZC45 …, UniProt A0A2R3SUW7); assay: ELISA; […], room temperature; […]
# [4] = target: T2, HKU3-1 S protein ectodomain (Bat SARS coronavirus HKU3-1 (DQ022305), UniProt Q3LZX1); assay: ELISA; […], room temperature; […]
# T2 construct: source: Drosophila S2 cells, secreted, purified (Strep-Tactin XT, Superose 6 SEC)
# [5] = target: T3, BM48-31 S protein ectodomain (Bat coronavirus BM48-31/BGR/2008 …); assay: ELISA; […], room temperature; […]
# T3 construct: also called sarbecovirus BM48-31 S protein
# [6] = target: RaTG13 S protein ectodomain (Bat coronavirus RaTG13 (MN996532), UniProt A0ABF7PLN6); assay: ELISA; […], room temperature; […]
# [7] = target: RsSHC014 S protein ectodomain (Bat SARS-like coronavirus RsSHC014 …, UniProt U5WLK5); assay: ELISA; […], room temperature; […]
Binder,Kd [1] [nM],koff [1] [s⁻¹],kon [1] [M⁻¹ s⁻¹],binding result [2],binding result [3],binding result [4],binding result [5],binding result [6],binding result [7]
B1,0.24,0.00019,780000,,,,,,
B2,,,,binds,binds,binds,no binding (tested: 2 µg/mL antibody),binds,binds
